Experimental data reported in US20030049732A1 (Human Genome Sciences, published 2003).

T1: Nod1 (human, UniProt Q9Y239 1-953)
T1 construct: also called wild-type Nod1; WT Nod1
T1 sequence: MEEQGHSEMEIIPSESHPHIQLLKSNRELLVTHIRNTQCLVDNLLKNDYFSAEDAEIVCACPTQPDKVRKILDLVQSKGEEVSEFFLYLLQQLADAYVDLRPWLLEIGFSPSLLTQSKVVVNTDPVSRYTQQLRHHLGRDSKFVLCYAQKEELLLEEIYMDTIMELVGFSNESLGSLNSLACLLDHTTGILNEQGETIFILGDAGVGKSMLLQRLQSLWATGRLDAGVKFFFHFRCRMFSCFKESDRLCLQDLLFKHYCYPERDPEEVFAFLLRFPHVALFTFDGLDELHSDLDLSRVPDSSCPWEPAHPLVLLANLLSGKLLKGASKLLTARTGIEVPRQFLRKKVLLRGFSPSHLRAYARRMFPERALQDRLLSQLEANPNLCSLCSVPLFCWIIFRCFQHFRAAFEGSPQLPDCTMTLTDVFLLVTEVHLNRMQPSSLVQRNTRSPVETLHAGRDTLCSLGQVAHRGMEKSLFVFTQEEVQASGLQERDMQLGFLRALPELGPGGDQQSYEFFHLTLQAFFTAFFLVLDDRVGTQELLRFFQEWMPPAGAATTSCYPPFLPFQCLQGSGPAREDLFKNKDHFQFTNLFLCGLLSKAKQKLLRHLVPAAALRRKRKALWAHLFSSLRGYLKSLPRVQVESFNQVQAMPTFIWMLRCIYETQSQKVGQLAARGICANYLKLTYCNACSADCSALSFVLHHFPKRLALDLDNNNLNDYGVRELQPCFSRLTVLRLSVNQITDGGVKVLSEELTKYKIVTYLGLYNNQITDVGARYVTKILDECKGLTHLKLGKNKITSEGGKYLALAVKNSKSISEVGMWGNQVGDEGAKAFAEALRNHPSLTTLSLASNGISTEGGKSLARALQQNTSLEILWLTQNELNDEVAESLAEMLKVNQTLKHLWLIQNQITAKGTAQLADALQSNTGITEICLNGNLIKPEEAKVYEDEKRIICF

B1: A20 (other, UniProt P21580 1-790, looked up)
chain: MAEQVLPQALYLSNMRKAVKIRERTPEDIFKPTNGIIHHFKTMHRYTLEMFRTCQFCPQFREIIHKALIDRNIQATLESQKKLNWCREVRKLVALKTNGDGNCLMHATSQYMWGVQDTDLVLRKALFSTLKETDTRNFKFRWQLESLKSQEFVETGLCYDTRNWNDEWDNLIKMASTDTPMARSGLQYNSLEEIHIFVLCNILRRPIIVISDKMLRSLESGSNFAPLKVGGIYLPLHWPAQECYRYPIVLGYDSHHFVPLVTLKDSGPEIRAVPLVNRDRGRFEDLKVHFLTDPENEMKEKLLKEYLMVIEIPVQGWDHGTTHLINAAKLDEANLPKEINLVDDYFELVQHEYKKWQENSEQGRREGHAQNPMEPSVPQLSLMDVKCETPNCPFFMSVNTQPLCHECSERRQKNQNKLPKLNSKPGPEGLPGMALGASRGEAYEPLAWNPEESTGGPHSAPPTAPSPFLFSETTAMKCRSPGCPFTLNVQHNGFCERCHNARQLHASHAPDHTRHLDPGKCQACLQDVTRTFNGICSTCFKRTTAEASSSLSTSLPPSCHQRSKSDPSRLVRSPSPHSCHRAGNDAPAGCLSQAARTPGDRTGTSKCRKAGCVYFGTPENKGFCTLCFIEYRENKHFAAASGKVSPTASRFQNTIPCLGRECGTLGSTMFEGYCQKCFIEAQNQRFHEAKRTEEQLRSSQRRDVPRTTQSTSRPKCARASCKNILACRSEELCMECQHPNQRMGPGAHRGEPAPEDPPKQRCRAPACDHFGNAKCNGYCNECFQFKQMYG
B2: Ced-4 (other, UniProt P30429 1-549, looked up)
chain: MLCEIECRALSTAHTRLIHDFEPRDALTYLEGKNIFTEDHSELISKMSTRLERIANFLRIYRRQASELGPLIDFFNYNNQSHLADFLEDYIDFAINEPDLLRPVVIAPQFSRQMLDRKLLLGNVPKQMTCYIREYHVDRVIKKLDEMCDLDSFFLFLHGRAGSGKSVIASQALSKSDQLIGINYDSIVWLKDSGTAPKSTFDLFTDILLMLKSEDDLLNFPSVEHVTSVVLKRMICNALIDRPNTLFVFDDVVQEETIRWAQELRLRCLVTTRDVEISNAASQTCEFIEVTSLEIDECYDFLEAYGMPMPVGEKEEDVLNKTIELSSGNPATLMMFFKSCEPKTFEKMAQLNNKLESRGLVGVECITPYSYKSLAMALQRCVEVLSDEDRSALAFAVVMPPGVDIPVKLWSCVIPVDICSNEEEQLDDEVADRLKRLSKRGALLSGKRMPVLTFKIDHIIHMFLKHVVDAQTIANGISILEQRLLEIGNNNVSVPERHIPSHFQKFRRSSASEMYPKTTEETVIRPEDFPKFMQLHQKFYDSLKNFACC
B3: Caspase-7 (enzyme, UniProt P55210 1-303, looked up)
chain: MADDQGCIEEQGVEDSANEDSVDAKPDRSSFVPSLFSKKKKNVTMRSIKTTRDRVPTYQYNMNFEKLGKCIIINNKNFDKVTGMGVRNGTDKDAEALFKCFRSLGFDVIVYNDCSCAKMQDLLKKASEEDHTNAACFACILLSHGEENVIYGKDGVTPIKDLTAHFRGDRCKTLLEKPKLFFIQACRGTELDDGIQADSGPINDTDANPRYKIPVEADFLFAYSTVPGYYSWRSPGRGSWFVQALCSILEEHGKDLEIMQILTRVNDRVARHFESQSDDPHFHEKKQIPCVVSMLTKELYFSQ
B4: IKKa (enzyme, UniProt O15111 1-745, looked up)
chain: MERPPGLRPGAGGPWEMRERLGTGGFGNVCLYQHRELDLKIAIKSCRLELSTKNRERWCHEIQIMKKLNHANVVKACDVPEELNILIHDVPLLAMEYCSGGDLRKLLNKPENCCGLKESQILSLLSDIGSGIRYLHENKIIHRDLKPENIVLQDVGGKIIHKIIDLGYAKDVDQGSLCTSFVGTLQYLAPELFENKPYTATVDYWSFGTMVFECIAGYRPFLHHLQPFTWHEKIKKKDPKCIFACEEMSGEVRFSSHLPQPNSLCSLVVEPMENWLQLMLNWDPQQRGGPVDLTLKQPRCFVLMDHILNLKIVHILNMTSAKIISFLLPPDESLHSLQSRIERETGINTGSQELLSETGISLDPRKPASQCVLDGVRGCDSYMVYLFDKSKTVYEGPFASRSLSDCVNYIVQDSKIQLPIIQLRKVWAEAVHYVSGLKEDYSRLFQGQRAAMLSLLRYNANLTKMKNTLISASQQLKAKLEFFHKSIQLDLERYSEQMTYGISSEKMLKAWKEMEEKAIHYAEVGVIGYLEDQIMSLHAEIMELQKSPYGRRQGDLMESLEQRAIDLYKQLKHRPSDHSYSDSTEMVKIIVHTVQSQDRVLKELFGHLSKLLGCKQKIIDLLPKVEVALSNIKEADNTVMFMQGKRQKEIWHLLKIACTQSSARSLVGSSLEGAVTPQTSAWLPPTSAEHDHSLSCVVTPQDGETSAQMIEENLNCLGHLSTIIHEANEEQGNSMMNLDWSWLTE
notes: also called IKKα
B5: Caspase-3 (enzyme, UniProt P42574 1-277, looked up)
chain: MENTENSVDSKSIKNLEPKIIHGSESMDSGISLDNSYKMDYPEMGLCIIINNKNFHKSTGMTSRSGTDVDAANLRETFRNLKYEVRNKNDLTREEIVELMRDVSKEDHSKRSSFVCVLLSHGEEGIIFGTNGPVDLKKITNFFRGDRCRSLTGKPKLFIIQACRGTELDCGIETDSGVDDDMACHKIPVEADFLYAYSTAPGYYSWRNSKDGSWFIQSLCAMLKQYADKLEFMHILTRVNRKVATEFESFSFDATFHAKKQIPCIVSMLTKELYFYH
B6: FADD (other, UniProt Q13158 1-208, looked up)
chain: MDPFLVLLHSVSSSLSSSELTELKFLCLGRVGKRKLERVQSGLDLFSMLLEQNDLEPGHTELLRELLASLRRHDLLRRVDDFEAGAAAGAAPGEEDLCAAFNVICDNVGKDWRRLARQLKVSDTKIDSIEDRYPRNLTERVRESLRIWKNTEKENATVAHLVGALRSCQMNLVADLVQEVQQARDLQNRSGAMSPMSWNSDASTSEAS
B7: DEDD (other, UniProt O75618 1-318, looked up)
chain: MAGLKRRASQVWPEEHGEQEHGLYSLHRMFDIVGTHLTHRDVRVLSFLFVDVIDDHERGLIRNGRDFLLALERQGRCDESNFRQVLQLLRIITRHDLLPYVTLKRRRAVCPDLVDKYLEETSIRYVTPRALSDPEPRPPQPSKTVPPHYPVVCCPTSGPQMCSKRPARGRATLGSQRKRRKSVTPDPKEKQTCDIRLRVRAEYCQHETALQGNVFSNKQDPLERQFERFNQANTILKSRDLGSIICDIKFSELTYLDAFWRDYINGSLLEALKGVFITDSLKQAVGHEAIKLLVNVDEEDYELGRQKLLRNLMLQALP
B8: IKKb (enzyme, UniProt O14920 1-756, looked up)
chain: MSWSPSLTTQTCGAWEMKERLGTGGFGNVIRWHNQETGEQIAIKQCRQELSPRNRERWCLEIQIMRRLTHPNVVAARDVPEGMQNLAPNDLPLLAMEYCQGGDLRKYLNQFENCCGLREGAILTLLSDIASALRYLHENRIIHRDLKPENIVLQQGEQRLIHKIIDLGYAKELDQGSLCTSFVGTLQYLAPELLEQQKYTVTVDYWSFGTLAFECITGFRPFLPNWQPVQWHSKVRQKSEVDIVVSEDLNGTVKFSSSLPYPNNLNSVLAERLEKWLQLMLMWHPRQRGTDPTYGPNGCFKALDDILNLKLVHILNMVTGTIHTYPVTEDESLQSLKARIQQDTGIPEEDQELLQEAGLALIPDKPATQCISDGKLNEGHTLDMDLVFLFDNSKITYETQISPRPQPESVSCILQEPKRNLAFFQLRKVWGQVWHSIQTLKEDCNRLQQGQRAAMMNLLRNNSCLSKMKNSMASMSQQLKAKLDFFKTSIQIDLEKYSEQTEFGITSDKLLLAWREMEQAVELCGRENEVKLLVERMMALQTDIVDLQRSPMGRKQGGTLDDLEEQARELYRRLREKPRDQRTEGDSQEMVRLLLQAIQSFEKKVRVIYTQLSKTVVCKQKALELLPKVEEVVSLMNEDEKTVVRLQEKRQKELWNLLKIACSKVRGPVSGSPDSMNASRLSQPGQLMSQPSTASNSLPEPAKKSEELVAEAHNLCTLLENAIQDTVREQDQSFTALDWSWLQTEEEEHSCLEQAS
notes: also called IKKβ

The binders below were run against T1, Nod1 (assay: co-immunoprecipitation, tagged proteins transiently expressed in 293T cells).
Source text: The CARD and its structurally related death effector domain (DED) are peptide motifs that mediate interactions between apoptosis-regulatory proteins (Science 281:1301 (1998); Hofmann et al., Trends Biochem. Sci. 22:155 (1998)).

Binder | binding result
B1 | no binding
B2 | no binding
B3 | no binding
B4 | no binding
B5 | no binding
B6 | no binding
B7 | no binding
B8 | no binding
